Experimental data from the supplement of paper PMC12338614.

B1: library; numbered along this chain (parent)
chain: MEVVDPQQLGMFTEGELMSVGMDTFIHRIDSTEVIYQPRRKRAKLIGKYLMGDLLGEGSYGKVKEVLDSETLCRRAVKILKKKKLRRIPNGEANVKKEIQLLRRLRHKNVIQLVDVLYNEEKQKMYMVMEYCVCGMQEMLDSVPEKRFPVCQAHGYFCQLIDGLEYLHSQGIVHKDIKPGNLLLTTGGTLKISDLGVAEALHPFAADDTCRTSQGSPAFQPPEIANGLDTFSGFKVDIWSAGVTLYNITTGLYPFEGDNIYKLFENIGKGSYAIPGDCGPPLSDLLKGMLEYEPAKRFSIRQIRQHSWFRKKHPPAEAPVPIPPSPDTKDRWRSMTVVPYLEDLHGADEDEDLFDIEDDIIYTQDFTVPGQVPEEEASHNGQRRGLPKAVCMNGTEAAQLSTKSRAEGRAPNPARKACSASSKIRRLSACKQQ

Variants of: B1
Experiment: STK11 functional score (HeLa growth suppression), rescaled enrichment; synonymous median = 1, nonsense median = 0 (normalised score)
Details: with HeLa; variant type: missense
How it was run: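 HeLa cells carrying an AAVS1 landing pad received codon-optimised STK11 libraries made by codon randomisation (POPCode), integrated by Bxb1, with three regions each transfected three times. Integrants that were BFP-negative and mCherry-positive were sorted by FACS 4–5 days after electroporation and then grown for about two weeks. Tiled amplicons from gDNA were sequenced on NextSeq at ~2 million reads per tile. The functional score is a wild-type-corrected log ratio of post- to pre-selection counts, rescaled to the synonymous and nonsense medians, merged across codons and replicate transfections, and given a bootstrapped error.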

STK11 functional score, by site and new letter:
F219: L 1.11 | H 1.18 | Y 1.29 | A 0.528 | R 0.1 | W 1.49 | K -0.214 | C 0.557 | I 1.31 | G 0.713 | S 0.778 | Q 1.57 | V 0.825 | P 0.116
P222: C 0.773 | T 0.499 | G 0.489 | A 0.83 | S 1.15 | Q 0.712 | N 1.61 | I 1.13 | E 0.0466 | V 0.826 | D -0.103 | F 0.44 | M 0.595 | W 0.686 | L 0.281 | R 0.93 | H 0.314
E223: C 1.03 | Y 1 | T 0.188 | I 0.17 | R 0.921 | D 0.948 | V 0.469 | G 0.169 | S 0.551 | Q 0.735 | K 0.308 | H 1.18 | L 0.529 | W 0.142
G215: I 0.938 | S 1.11 | C 1.06 | T 1.19 | D 0.255 | H 0.951 | R 0.426 | L 1.04 | V 0.788 | M 0.509 | A 1.15 | Y 1.08 | W 0.29 | N 1.43 | Q 0.0889
A218: P 0.529 | W 0.671 | C 0.947 | R 0.926 | K 1.28 | E 1.23 | S 1.09 | F 1.26 | T 0.88 | M 1.35 | L 0.905 | G 0.816 | D 0.324 | Y 1.34 | H 0.853 | V 1.07 | N 1.35 | Q 1.25 | I 0.926
Q220: E 0.51 | L 0.714 | D 0.747 | M 1.15 | K 0.583 | V 0.924 | P 0.0844 | G 0.849 | C 1.18 | H 0.87 | R 0.808 | T 1.67 | S 1.21 | W 1.46 | Y 1.33 | A 1.3
S216: N 0.349 | R -0.166 | E -0.148 | T 0.847 | Y -0.11 | K -0.0726 | M 0.227 | L 0.0797 | W -0.0568 | I 0.119 | G 0.926 | F -0.0894 | D 0.167 | A 0.851 | P 0.894 | V 0.614
I224: S 1.31 | F 1.09 | R 1.04 | T 0.252 | K 1.19 | Q 0.698 | M 1.11 | H 1.46 | E 1.03 | W 1.3 | P 0.889 | N 1.47 | V 0.835 | L 1.28
P221: G 1.03 | R 0.116 | S 1.07 | Y -0.0979 | L 0.159 | M 0.39 | D 0.00575 | C 0.759 | F -0.0165 | V 1.01 | I 0.337
N226: I 0.495 | A 1.61 | H 0.561 | G 1.24 | L 1.08 | M 0.459 | K 0.86 | E 0.0384 | C 1.29
A225: R 1.07 | P 1.22 | S 1.06 | I 1.42 | T 1.65 | V 1.28 | Y 0.922 | G 1.05 | L 1.52
Q214: Y 1.19
P217: G 1.53 | V 0.177 | C 0.451 | Y 1.45 | L 0.248 | E 0.536 | W 1.66 | H 0.332 | R 0.3 | S 0.334 | A 1.25 | F 1.45
